± gives the half width of the 95% confidence interval.
experiment: folding stability dG unfold from trypsin proteolysis; higher = more stable
Summary of the method: (§1)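 Digests were run with trypsin and chymotrypsin at 11 concentrations in threefold dilutions, plus a no-protease condition, on designed mini-proteins in a PA-tagged cDNA display construct. The mini-proteins were under 80 residues, had no cysteine, and were kept only when AlphaFold2 dimer inter-PAE was above 15. After sequencing, Bayesian fitting of the counts gave K50, from which unfolding free energy was derived against a sequence-predicted unfolded-state K50 and a shared folded-state K50, per protease or combined.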

Sequence	folding stability dG unfold [kcal/mol]
SAGGSMETRETLEERTLPNGEKVLTTTTTYPDGTVTTRTTVIHGGTSTVTTTTTPAAPVPGPAPARASAGGS [r16_523_JUSTAS]	0.422 ± 0.028
SAGGSAGGSADEPETTTTTTTTTTTKKPAPPAPPKTITLDVEVNGKTLRLTFTSKEALDALSAGGSAGGSAG [r3_426_TrROS_Hall]	0.931 ± 0.021
SAGGSAGGSAGMTYVYPGPDGKEYLAEVDPNIPGAEVTVTPPDTGETVTVPLSQVTEVPPSAGGSAGGSAGG [r11_822_JUSTAS]	0.56 ± 0.05
SAEMKIEKIEVKPLEEEPELVEITIKVKDPEKLKEALEKAGFTVEEVDEEEGKLTITMSREQLEKLLKASAG [r14_777_TrROS_Hall]	1.85 ± 0.1
SAGGSAGGGKPKVEIEYNGKTYEFDSLEELVAEAKEPVRIRLPNGEEIELSREDLKNLTVRLVPSAGGSAGG [r6_684_TrROS_Hall]	1.55 ± 0.018
MRITLEHPDIKRLTIEFRPMPDGYFRMDIKVERPDGKPVPIPFPMRYEDGKMTPEMMEQMIDEAVEEALADS [r1_124_TrROS]	0.608 ± 0.077
SAGGSMIITRDPATGLVTVYKNGKKVKTIEVPPGNPVGVSLSYNPSPNTYTVTLTTPESPVKISNLSAGGSA [r2_399_JUSTAS]	0.855 ± 0.032
SAMVITTSLEEARKRTGLSESASPEEVRAAVEALIAAETAAGVTLLAIELLEVGDTWTLRVEIERAGGVSAG [r14_158_JUSTAS]	2.36 ± 0.057
SMYTADFILPDEVLKTVPLEGKSVEEALEKVKEIVKQLPPNTPLLVKISYTEVDPKTGTTRTGTITVPLKSA [r9_245_JUSTAS]	2.06 ± 0.065
SRIKITVKPKPDGNFYIKIWFPNNGKPFIFPIKNPDAMDEARDDPGQTIEVPEDYLRSLFPDNFTDVEIVSA [r9_390_TrROS]	1.31 ± 0.015
SAGGSAGGSAGGEIPIKIRPYDPKDGEPKDEHPIPFDTPNGNSLDEIAKQLPPDHFEVDISAGGSAGGSAGG [r17_339_TrROS]	0.382 ± 0.067
SAGGSLTAEWDTSTGTVRLTFPDGSVVELPFPTSGAVVRATVDGDKVTIEVLDKDNPKVVARFTFDLGSAGG [r13_938_TrMRF]	3.79 ± 0.2
SMKEGIEAAIDELKEALEKGEGEVRVVLRFEGFVLEITIKPKGYKIEDIEIEPLPDDIPFIREREEVPPESA [r9_308_TrMRF]	1.23 ± 0.051
SAGGDPPNIEVVPYRVKFGGKPIPIQVFVMPNGQTIVRIKFPNGKKGWMPADDLDELLKNPFEIERVSAGGS [r16_105_TrROS]	1.21 ± 0.023
SAGGSAGGSAGKYEVTKIEVVKNEDGSEYLRVTIKVDGKEITITIPLEDAENIKIEIKPPSAGGSAGGSAGG [r17_64_TrROS_Hall]	2.69 ± 0.086
SAGGSAGGSAGAYRVEVNVELTPEAREAFLKNPELPADAEIPVVVSGRVEPVPLGPEGVLSAGGSAGGSAGG [r17_194_TrMRF]	-0.58 ± 0.2
SPKITIDVETNKNGRGYIRFKFNGREREIRIPSNMTPEGAKEKARDIANTLQKRYQENGRPLKIEEIEIYSA [r9_751_TrROS]	1.49 ± 0.089
SAGGSAGGSAGGMLSGQVIEVTIPPERRLVRVEKLPSGDYLITIYRPDEPKPLETLRIRASAGGSAGGSAGG [r7_620_JUSTAS]	1.49 ± 0.034
SAGGSASDVVPIDKKITITLPGGEKYEVTEMTVLPDGTVKMKIIKKSPNGNPTEEEITLSPEELVDLSAGGS [r16_498_JUSTAS]	2.26 ± 0.083
SAGGSAGGSNWYQFTIPFPIPPDEPVEIKLPDGWEIHEIPPNSGRITIYMPMNNMDAIKEAIGSAGGSAGGS [r12_476_TrROS]	1.214 ± 0.012
SMVELKITVKTPEELKKLEEAFKELGVEEVTIERKEDGTVTITVTFKESEEELEERVREALEELGFEVEPSA [r9_1003_TrROS_Hall]	3.33 ± 0.18

Sequence	folding stability dG unfold [kcal/mol]
SAGMKITISYDEAKGIATVTLYEERPVETPNGPVTLRRKVATVTIPYTSLEEAKKQAEEAAKALLEKLSSAG [r5_956_JUSTAS]	5.11 ± 0.14
SAGGSDKLYIRNPDHTIEIDEVKEPPDGEKYVRIRHEPPDGKEKEHEFPPDELADKFGLPPDNIEISAGGSA [r2_262_TrROS]	0.32 ± 0.35
SAGGFEFKAVKLKKNEEKEGELGGAKVRYVSDNKGPVYQVVEFGPEYRALAKVEGDKVELVAVEEGNPSAGG [r13_92_TrMRF]	-1.02 ± 0.66
SAGGMVTITTEKMTEEEAEELKKKLPPNTVLLPNPANDTIVPILVPPDPAVLQAVKDALEKELAEAKSAGGS [r16_311_JUSTAS]	1.49 ± 0.13
SAGGSASLESEDVEEVSTSTSVVPLPDGGTATVTTTTYRHKEPGTLVTRTTTTFPGGATTTTVTLLSAGGSA [r15_188_JUSTAS]	1.69 ± 0.039
SAGGTTTTLTFETEEEAREFAEELREKHPDVVLEVEIRRETRTVTVPGVGEVREVDRVVVTVTLTPASAGGS [r16_828_JUSTAS]	2.03 ± 0.054
SAGGSYLDEVREKILKEYPLKPGEPKEIEITVPLPSGRTVKIKIPVTVDPKTGKVEAKFEVLEETKESAGGS [r16_634_JUSTAS]	0.395 ± 0.033
SAGGSANLPPGQPKIITITIPLGEEVRNPDGEPMTPEDIADNFQERFGNIEVEKSPNGWLEVTFWLSAGGSA [r15_645_TrROS]	1.3 ± 0.06
SAGGSAMPVVELPIGPELYEKIKEAAEAGDPDKVITLPLKLPNGEEVTLVVEADPATPEFRARVELSAGGSA [r15_700_TrMRF]	-0.683 ± 0.1
SAGGSAEELLKKLKIVEVKEVDGKLYIEIEVDEPGLTVEEIKEILKELNLDVPIEVKEVVVVEEKESAGGSA [r15_599_TrROS_Hall]	1.69 ± 0.14
SAGGSAGGMKTFTIDELKKLAEELGAEIYYDKDTNTIYIRTPGKIFRITINDDGTVTIEELPPKSAGGSAGG [r6_155_TrROS_Hall]	3.05 ± 0.19
SAGGSAGGSKPVLVKVERKEVEVPLPDGTPGKVFVVKVTVLGENEPLAEKTYLFASEEEAKESSAGGSAGGS [r12_461_TrMRF]	0.102 ± 0.076
SAGGSAGGSAKKVVTVPEDATLEEIEELLKSGEKVTVVIHNKETGKTETLEFDSLEELKAASAGGSAGGSAG [r3_362_TrROS_Hall]	0.601 ± 0.072
SAGGSAGGKKVYPIPGATPNQFRELLDENKGTLKIYMPNGKQEEFPIKPGMEPIPGGPAWIERKSAGGSAGG [r6_304_TrROS]	-0.834 ± 0.41
SAGGSKTVTLTVTVEVNGKTFTVTVTLTYDEETNKLTITVEISAKSEEERERARELVEKLLKELLSSAGGSA [r2_259_TrROS_Hall]	3.83 ± 0.12
SAGGSAGGSAGGSMITIEVTTPTEKHTIEVPEDEVPEEELIERAKKLFPDVEKITILKESAGGSAGGSAGGS [r4_235_JUSTAS]	0.65 ± 0.037
SAGGMPEGMVVLRIRVRVEKVEVRRDPAVPGRVSRRVEVREVEIELVVDSREALEALRELGFEIEEVSAGGS [r8_482_TrROS_Hall]	3.79 ± 0.099
SAGGSRTVLLYDPDNPRPYIVEYDPATGTLRIYDPETGELVAEFPIPDLKDIEAPVVPNGILLGAIVDSAGG [r13_720_TrMRF]	1.03 ± 0.023
SAGQPGKPIRKYTFDLPDDDKITVEVYMYPDGNMMIKIEDNNGKERNIMIPANDLQNMPIEDLVKWLRSAGG [r19_47_TrROS]	2.73 ± 0.12
SAGGSAAGAERVTYNYMIPNDGKWFMIRITIYRFEVKRDPEDNKYKLDLPPGDQLFINTEIMWFPNSAGGSA [r15_1040_TrROS]	2.72 ± 0.12
SAGGIIEIDPNGWVIRIEMYPPDGKPPKHTIPFPNATPEELIDELKDWADQLPNPGHKVKIDEITPMPSAGG [r13_29_TrROS]	0.052 ± 0.071

experiment: folding stability dG unfold from chymotrypsin proteolysis; higher = more stable
Summary of the method: as §1

Sequence	folding stability dG unfold [kcal/mol]
SAGGSMETRETLEERTLPNGEKVLTTTTTYPDGTVTTRTTVIHGGTSTVTTTTTPAAPVPGPAPARASAGGS [r16_523_JUSTAS]	2.01 ± 0.059
SAGGSAGGSADEPETTTTTTTTTTTKKPAPPAPPKTITLDVEVNGKTLRLTFTSKEALDALSAGGSAGGSAG [r3_426_TrROS_Hall]	0.945 ± 0.1
SAGGSAGGSAGMTYVYPGPDGKEYLAEVDPNIPGAEVTVTPPDTGETVTVPLSQVTEVPPSAGGSAGGSAGG [r11_822_JUSTAS]	-0.449 ± 0.18
SAEMKIEKIEVKPLEEEPELVEITIKVKDPEKLKEALEKAGFTVEEVDEEEGKLTITMSREQLEKLLKASAG [r14_777_TrROS_Hall]	1.68 ± 0.14
SAGGSAGGGKPKVEIEYNGKTYEFDSLEELVAEAKEPVRIRLPNGEEIELSREDLKNLTVRLVPSAGGSAGG [r6_684_TrROS_Hall]	2.29 ± 0.056
MRITLEHPDIKRLTIEFRPMPDGYFRMDIKVERPDGKPVPIPFPMRYEDGKMTPEMMEQMIDEAVEEALADS [r1_124_TrROS]	0.617 ± 0.2
SAGGSMIITRDPATGLVTVYKNGKKVKTIEVPPGNPVGVSLSYNPSPNTYTVTLTTPESPVKISNLSAGGSA [r2_399_JUSTAS]	1.31 ± 0.083
SAMVITTSLEEARKRTGLSESASPEEVRAAVEALIAAETAAGVTLLAIELLEVGDTWTLRVEIERAGGVSAG [r14_158_JUSTAS]	1.72 ± 0.068
SMYTADFILPDEVLKTVPLEGKSVEEALEKVKEIVKQLPPNTPLLVKISYTEVDPKTGTTRTGTITVPLKSA [r9_245_JUSTAS]	2.39 ± 0.044
SRIKITVKPKPDGNFYIKIWFPNNGKPFIFPIKNPDAMDEARDDPGQTIEVPEDYLRSLFPDNFTDVEIVSA [r9_390_TrROS]	1.16 ± 0.12
SAGGSAGGSAGGEIPIKIRPYDPKDGEPKDEHPIPFDTPNGNSLDEIAKQLPPDHFEVDISAGGSAGGSAGG [r17_339_TrROS]	1.11 ± 0.018
SAGGSLTAEWDTSTGTVRLTFPDGSVVELPFPTSGAVVRATVDGDKVTIEVLDKDNPKVVARFTFDLGSAGG [r13_938_TrMRF]	4.74 ± 0.15
SMKEGIEAAIDELKEALEKGEGEVRVVLRFEGFVLEITIKPKGYKIEDIEIEPLPDDIPFIREREEVPPESA [r9_308_TrMRF]	1.58 ± 0.19
SAGGDPPNIEVVPYRVKFGGKPIPIQVFVMPNGQTIVRIKFPNGKKGWMPADDLDELLKNPFEIERVSAGGS [r16_105_TrROS]	0.998 ± 0.14
SAGGSAGGSAGKYEVTKIEVVKNEDGSEYLRVTIKVDGKEITITIPLEDAENIKIEIKPPSAGGSAGGSAGG [r17_64_TrROS_Hall]	3.59 ± 0.036
SAGGSAGGSAGAYRVEVNVELTPEAREAFLKNPELPADAEIPVVVSGRVEPVPLGPEGVLSAGGSAGGSAGG [r17_194_TrMRF]	0.0793 ± 0.14
SPKITIDVETNKNGRGYIRFKFNGREREIRIPSNMTPEGAKEKARDIANTLQKRYQENGRPLKIEEIEIYSA [r9_751_TrROS]	1.47 ± 0.13
SAGGSAGGSAGGMLSGQVIEVTIPPERRLVRVEKLPSGDYLITIYRPDEPKPLETLRIRASAGGSAGGSAGG [r7_620_JUSTAS]	1.92 ± 0.071
SAGGSASDVVPIDKKITITLPGGEKYEVTEMTVLPDGTVKMKIIKKSPNGNPTEEEITLSPEELVDLSAGGS [r16_498_JUSTAS]	2.594 ± 0.021
SAGGSAGGSNWYQFTIPFPIPPDEPVEIKLPDGWEIHEIPPNSGRITIYMPMNNMDAIKEAIGSAGGSAGGS [r12_476_TrROS]	1.01 ± 0.045
SMVELKITVKTPEELKKLEEAFKELGVEEVTIERKEDGTVTITVTFKESEEELEERVREALEELGFEVEPSA [r9_1003_TrROS_Hall]	2.82 ± 0.23

Reference: the supplement of paper PMC12764529
